Where “and” joins values, the source holds several entries; their conditions need not be identical. Identical values can stand only once.
Assays:
[1] = test system: laser-induced choroidal neovascularization rat model; experiment: Laser-induced choroidal neovascularization rat model: CNV area in choroidal flat mount (FITC-dextran); format: in vivo
Protocol: The groups were set as in Table 8 below. Laser irradiation was performed on the right eye in 10 animals in each group. EYLEA (registered trademark) was administered intravitreally into the right eye of individuals in Group 2 immediately after laser irradiation. For the individuals of Groups 1, 3, and 4, eyedrop administration of the administration substances of each group was performed four times a day from the day of laser irradiation to the day before eyeball enucleation.
Animals to be laser-irradiated were subjected to pupil dilation with Mydorin (registered trademark) P ophthalmic solution, and subjected to general anesthesia by intramuscular injection of a mixed solution of ketamine hydrochloride/xylazine hydrochloride (4:1, v/v) (1 mL/kg) into the thigh muscle. Then, fundus of the right eye was then observed using a slit lamp (SL-130, Carl Zeiss Meditec AG), and laser irradiation was performed at six locations using a green laser photocoagulation device (GYC-500, Nidek Co., Ltd.), avoiding thick capillaries of the retina. The laser conditions were a wavelength of 532 nm (green), a spot size of 50 μm, an irradiation time of 0.1 sec, and a laser irradiation intensity of 300 mW. Except for the individuals to be administered EYLEA (registered trademark), sodium hyaluronate (Hyalein (registered trademark) ophthalmic solution 0.3%, Santen Pharmaceutical Co., Ltd.) as an eye drop for treatment of corneal and conjunctival epithelial disorders was instilled into both eyes after laser irradiation.
Levofloxacin hydrate (CRAVIT (registered trademark) 1.5% ophthalmic solution, Santen Pharmaceutical Co., Ltd.) as a broad-spectrum antibacterial eye drop and oxybuprocaine hydrochloride (Benoxil (registered trademark) 0.4% ophthalmic solution, Santen Pharmaceutical Co., Ltd.) as an ophthalmic topical anesthetic were once instilled into the right eye of rats in Group 2 (EYLEA (registered trademark) administration group) after end of laser irradiation, and then EYLEA (registered trademark) was intravitreally administered at a dose of 200 μg/5 μL/eye using a 33 G two-stage injection needle and a microsyringe (Ito Manufacturing Co., Ltd.). The microsyringe was washed with D-PBS before administration. Hyalein (registered trademark) ophthalmic solution 0.3% was instilled into both eyes after intravitreal administration.
Eyedrop administration of the test substance and the negative control administration solution was performed in a volume of 5 μL/eye using a micropipette (Eppendorf Research Plus V, Eppendorf) at the administration period and the number of times determined for each group (see Group constitution table of Item (2)). At that time, since a test substance solution adheres to an outer side of the tip, care was taken so that the adhering test substance solution was wiped off with a Kimwipe once each time of eyedrop administration, and an excessive amount of the test substance solution was not instilled. In addition, although the tip of the pipette tip was sharp, care was taken not to damage the eyeball surface. Immediately before administration, the administration solution was lightly (about several seconds) centrifuged using a small microcentrifuge Wonder Spin, and the supernatant was used for administration.
Fourteen days after laser irradiation (Day 14), under general anesthesia by intramuscular femoral administration (1 mL/kg) of a ketamine hydrochloride/xylazine hydrochloride (4:1, v/v) mixed solution, a 4% FITC-dextran solution was administered to the tail vein at a dose of 40 mg/l mL/animal.
After 1 minute from the tail vein administration of the 4% FITC-dextran solution, rats were euthanized by excessive anesthesia by administration of 129.6 mg/mL sodium pentobarbital solution and the right eye ball was enucleated. The enucleated eyeball was fixed in a 4% paraformaldehyde phosphate buffer (FUJIFILM Wako Pure Chemical Corporation, hereinafter referred to as 4% PFA) for 12 to 30 hours at normal temperature. […]

[2] = Body weight measurement during the CNV rat test; format: in vivo; conditions: for Body Weight (Average): Group 2, IVT inj. 200 μg/5 μL/eye single dose; for Weight (g) (Individual): Group 2 individual animals, IVT 200 μg/5 μL/eye
Protocol: The appearance, behavior, and state of excrement or the like were observed every day.
The body weight was measured on the animal arrival date, the preliminary housing end date (grouping date), the eyedrop administration start date, the laser irradiation date (Day 0), and the eyeball enucleation date (Day 14).

Aflibercept [EYLEA]
Area of CNV Lesion, Mean ([1]; Group 2, IVT inj. 200 μg/5 μL/eye single dose after irradiation, 14 days after laser, N=10): 421359.3 pixel | CNV area compared with Group 1 (saline), in words ([1]; Group 2, intravitreal 200 μg/5 μL/eye, Student's t-test): CNV area was significantly reduced | Individual Value of CNV Area in Each Animal ([1]; Group 2 individual animals, IVT 200 μg/5 μL/eye, 14 days after laser): 396255.8 pixel and 417758.8 pixel and 460248.8 pixel and 470883.0 pixel and 474112.7 pixel and 444455.3 pixel and 440849.3 pixel and 374017.3 pixel and 402387.0 pixel and 332625.3 pixel | Body Weight (Average) ([2]; Day 0 (Laser injection)): 155.10 g | Body Weight (Average) ([2]; Day 14 (Enucleation)): 200.52 g | Body Weight (Average) ([2]; Day −3 or Day −2 (Grouping)): 141.91 g | Weight (g) (Individual) ([2]; Enucleation (Day 14)): 191.41 g and 189.23 g and 203.15 g and 192.58 g and 215.19 g and 210.30 g and 206.10 g and 205.20 g and 197.20 g and 194.87 g | Weight (g) (Individual) ([2]; Grouping (Day −3 or −2)): 132.69 g and 135.94 g and 139.54 g and 143.39 g and 145.96 g and 144.35 g and 147.21 g and 151.85 g and 140.51 g and 137.64 g | Weight (g) (Individual) ([2]; Laser injection (Day 0)): 140.59 g and 146.82 g and 151.42 g and 154.62 g and 160.15 g and 162.32 g and 160.99 g and 169.71 g and 155.47 g and 148.87 g

From US20260091082A1, “CYCLIC PEPTIDE DERIVATIVE COMPOSITION FOR TREATING OR PREVENTING EYE DISEASE” (DKS Co. Ltd., priority 2022, published 2026)
